US20220251236A1 (Boehringer Ingelheim, published 2022)

What was measured:
[1] = molecular target: T1, FLAG-tagged human DLL1 full length (human, UniProt O00548 1-723); experiment: flow cytometry on HEK293 cells expressing human DLL1 (HEK293-huDLL1), PE anti-human secondary, control: secondary antibody only
T1 construct: also called human DLL1 on HEK293 cells
T1 sequence: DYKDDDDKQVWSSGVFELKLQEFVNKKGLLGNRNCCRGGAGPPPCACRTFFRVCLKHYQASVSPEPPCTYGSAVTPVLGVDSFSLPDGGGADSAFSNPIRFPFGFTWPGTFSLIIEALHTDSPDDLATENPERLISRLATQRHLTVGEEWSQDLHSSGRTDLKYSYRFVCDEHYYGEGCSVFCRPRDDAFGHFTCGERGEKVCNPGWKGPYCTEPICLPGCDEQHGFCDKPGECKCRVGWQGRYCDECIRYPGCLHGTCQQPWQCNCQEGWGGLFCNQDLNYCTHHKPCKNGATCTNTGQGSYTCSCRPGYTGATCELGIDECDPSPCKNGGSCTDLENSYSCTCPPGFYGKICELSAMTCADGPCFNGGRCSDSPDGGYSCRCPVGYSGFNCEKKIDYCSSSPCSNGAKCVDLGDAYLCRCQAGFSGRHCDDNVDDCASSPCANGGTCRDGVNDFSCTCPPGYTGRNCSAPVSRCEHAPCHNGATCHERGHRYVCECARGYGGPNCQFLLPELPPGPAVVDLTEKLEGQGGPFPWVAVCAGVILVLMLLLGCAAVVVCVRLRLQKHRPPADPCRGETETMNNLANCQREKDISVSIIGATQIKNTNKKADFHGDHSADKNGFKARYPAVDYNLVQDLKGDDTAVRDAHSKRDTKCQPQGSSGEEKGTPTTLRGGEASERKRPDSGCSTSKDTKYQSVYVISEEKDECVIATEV
Procedure: (§1) Bound molecules were detected with PE-conjugated anti-human secondary antibody (Sigma-Aldrich, #P8047). As negative control, cells were incubated with secondary antibody only. The samples were measured by flow-cytometry.

[2] = molecular target: T2, FLAG-tagged human DLL4 full length (human, UniProt Q9NR61 1-685); experiment: flow cytometry on HEK293 cells expressing human DLL4 (HEK293-huDLL4), PE anti-human secondary, control: secondary antibody only
T2 construct: also called human DLL4 on HEK293 cells
Procedure: as §1

[3] = molecular target: T3, trypsin inhibitor from glycine max soybean (Glycine max (soybean)); experiment: SPR (Biacore T200), trypsin inhibitor on CM5 chip, sample at 1 µM
T3 construct: also called Tryp
Description: To prepare the surface for the non-specific binding experiment, chicken egg white lysozyme and trypsin inhibitor from glycine max soybean were coupled manually to a series S CM5 chip with the surface density of 3000-5000 RU using the amine coupling kit according to the manufacture instructions.

Human DLL3-His = molecular target: T4, Human DLL3-His (human, UniProt Q9NYJ7 27-492); experiment: SPR (ProteOn XPR36), bispecific captured on protein A/G, hu DLL3 as analyte, Example 4B
T4 construct: also called huDLL3-His; hu DLL3
T4 sequence: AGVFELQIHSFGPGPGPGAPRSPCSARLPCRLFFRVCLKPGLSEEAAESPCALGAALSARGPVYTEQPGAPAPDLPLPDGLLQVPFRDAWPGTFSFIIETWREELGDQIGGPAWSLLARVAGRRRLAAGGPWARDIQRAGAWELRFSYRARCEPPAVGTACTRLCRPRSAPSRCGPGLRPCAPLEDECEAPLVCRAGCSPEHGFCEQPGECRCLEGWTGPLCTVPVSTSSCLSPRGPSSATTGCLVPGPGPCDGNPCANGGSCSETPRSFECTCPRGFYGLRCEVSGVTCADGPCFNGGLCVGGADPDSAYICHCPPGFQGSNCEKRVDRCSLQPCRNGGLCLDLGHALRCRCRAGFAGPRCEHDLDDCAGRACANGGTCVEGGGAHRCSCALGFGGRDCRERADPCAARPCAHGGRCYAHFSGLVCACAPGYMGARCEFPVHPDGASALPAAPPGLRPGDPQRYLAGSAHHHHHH
In short: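 Bispecific constructs captured on protein A/G for 200 s at 30 μl/min, baseline stabilized with PBS-T-EDTA. Human DLL3 analyte injected 300 s at 30 μl/min; dissociation followed for 1800 s.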

[4] = molecular target: T5, human DLL3 (endogenous, on SCLC cell lines NCI-H82 and SHP77 and in SCLC tissue) (human, UniProt Q9NYJ7 27-618); experiment: flow cytometry titration on NCI-H82 cells, PE anti-human secondary, x-fold over background
T5 construct: whole, on cells; also called SCLC cell lines expressing DLL3
T5 sequence (looked up): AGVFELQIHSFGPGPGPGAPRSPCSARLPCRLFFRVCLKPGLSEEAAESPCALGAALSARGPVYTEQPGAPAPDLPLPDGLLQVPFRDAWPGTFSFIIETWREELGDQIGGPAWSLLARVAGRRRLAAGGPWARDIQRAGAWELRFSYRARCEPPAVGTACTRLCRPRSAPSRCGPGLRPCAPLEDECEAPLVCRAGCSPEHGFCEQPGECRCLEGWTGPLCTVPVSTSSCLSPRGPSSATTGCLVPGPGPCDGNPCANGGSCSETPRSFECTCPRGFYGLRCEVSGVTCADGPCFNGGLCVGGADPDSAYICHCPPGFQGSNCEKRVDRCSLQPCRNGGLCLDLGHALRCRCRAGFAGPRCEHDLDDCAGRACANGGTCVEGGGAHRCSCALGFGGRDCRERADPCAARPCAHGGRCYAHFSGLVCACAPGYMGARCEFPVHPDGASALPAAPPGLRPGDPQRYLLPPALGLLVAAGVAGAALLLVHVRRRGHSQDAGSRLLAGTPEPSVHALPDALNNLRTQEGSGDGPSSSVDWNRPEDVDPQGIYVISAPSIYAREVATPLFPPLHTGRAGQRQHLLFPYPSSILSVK
Description: Cells (T cells or human SCLC cells) were stained with increasing concentrations of two-step purified DLL3/CD3 binding proteins with increasing concentrations in FACS buffer (PBS/0.5% BSA/0.05% sodium azide). Bound molecules were detected with PE-conjugated anti-human secondary antibody (Sigma-Aldrich, #P8047).

T3 sequence (P01070 25-205): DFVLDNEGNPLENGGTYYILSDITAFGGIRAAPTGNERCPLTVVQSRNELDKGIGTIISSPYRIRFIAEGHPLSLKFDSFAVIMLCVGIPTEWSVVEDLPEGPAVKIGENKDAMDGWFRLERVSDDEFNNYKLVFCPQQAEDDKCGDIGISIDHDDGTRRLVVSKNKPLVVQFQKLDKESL
T2 sequence (Q9NR61 other isoform, or with tags, fused parts or gaps limits assumed): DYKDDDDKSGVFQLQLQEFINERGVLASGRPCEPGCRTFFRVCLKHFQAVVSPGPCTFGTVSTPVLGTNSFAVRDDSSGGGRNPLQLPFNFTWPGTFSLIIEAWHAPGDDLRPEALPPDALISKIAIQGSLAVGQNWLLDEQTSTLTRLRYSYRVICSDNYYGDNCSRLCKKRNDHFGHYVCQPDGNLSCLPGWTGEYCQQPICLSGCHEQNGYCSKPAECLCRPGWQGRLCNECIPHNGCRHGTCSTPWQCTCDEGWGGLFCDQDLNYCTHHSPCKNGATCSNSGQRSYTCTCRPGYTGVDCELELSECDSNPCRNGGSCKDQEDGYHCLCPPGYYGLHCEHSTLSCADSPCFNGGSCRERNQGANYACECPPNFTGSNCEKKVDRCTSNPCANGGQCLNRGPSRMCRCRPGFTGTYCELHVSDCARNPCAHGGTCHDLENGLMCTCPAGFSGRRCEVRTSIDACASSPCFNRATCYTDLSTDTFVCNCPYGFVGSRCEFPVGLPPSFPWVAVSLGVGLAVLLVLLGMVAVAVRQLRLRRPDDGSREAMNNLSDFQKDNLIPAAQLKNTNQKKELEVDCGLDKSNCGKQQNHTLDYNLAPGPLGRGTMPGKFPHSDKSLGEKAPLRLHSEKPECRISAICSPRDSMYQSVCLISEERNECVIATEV

B1: DLL3#5/CD3#1 (bispecific antibody, human IgG1, kappa, lambda, L234A L235A)
chain 1: not shown
chain 2: EAVVTQEPSLTVSPGGTVTLTCRSSTGAVTTSNYANWVQEKPGQLPRGLIGGTNKRAPWVPARFSGSLLGGKAALTLSGAQPEDEAEYFCALWYSNLWVFGGGTKLTVLGQPKAAPSVTLFPPSSEELQANKATLVCLISDFYPGAVKVAWKADGSPVNTGVETTTPSKQSNNKYAASSYLSLTPEQWKSHRSYSCQVTHEGSTVEKTVAPAECSGGGGSEGKSSGSGSESKSTEGKSSGSGSESKSTGGGGSEVQLVESGGGLVQPGGSLKLSCAASGFTFNTYAMNWVRQAPGKGLEWVARIRSKYNNYATYYADSVKDRFTISRDDSKNTAYLQMNNLKTEDTAVYYCVRHGNFGNSYVSWFAYWGQGTLVTVSAASTKGPSVFPLAPSSKSTSGGTAALGCLVKDYFPEPVTVSWNSGALTSGVHTFPAVLQSSGLYSLSSVVTVPSSSLGTQTYICNVNHKPSNTKVDKRVEPKSCDKTHTCPPCPAPEAAGGPSVFLFPPKPKDTLMISRTPEVTCVVVDVSHEDPEVKFNWYVDGVEVHNAKTKPREEQYNSTYRVVSVLTVLHQDWLNGKEYKCKVSNKALPAPIEKTISKAKGQPREPQVYTLPPSREEMTKNQVSLSCAVKGFYPSDIAVEWESNGQPENNYKTTPPVLDSDGSFFLVSKLTVDKSRWQQGNVFSCSVMHEALHNRFTQKSLSLSPG
notes: Heterodimer of one DLL3 chain and one CD3 chain (scFab-Fc, knob-in-hole)
binding result [1]: no binding (tested: 1.6 nM)
binding result [2]: no binding (tested: 1.6 nM)
Non-specific binding (RU) [3]: 0 RU
Kd (Human DLL3-His): < 0.02 nM
EC50 (read off the curve) [4]: ~5 nM

B2: DLL3#4/CD3#1 (bispecific antibody, human IgG1, kappa, lambda, L234A L235A)
chain 1: not shown
chain 2: B1 chain 2
notes: as for B1
binding result [1]: no binding (tested: 1.6 nM)
binding result [2]: no binding (tested: 1.6 nM)
Non-specific binding (RU) [3]: 37 RU
Kd (Human DLL3-His): < 0.02 nM
EC50 (read off the curve) [4]: ~1 nM
